Source: paper PMC2120794

Biological target: type I collagen (triple helix)
Assay: SPR
Conditions: scale: molecules of HSP47 per triple helix of type I collagen

stoichiometry N: > 7
B1: recombinant mouse HSP47 (natural protein)
chain: AEVKKPLEAAAPGTAEKLSSKATTLAERSTGLAFSLYQAMAKDQAVENILLSPLVVASSLGLVSLGGKATTASQAKAVLSAEKLRDEEVHTGLGELLRSLSNSTARNVTWKLGSRLYGPSSVSFADDFVRSSKQHYNCEHSKINFRDKRSALQSINEWASQTTDGKLPEVTKDVERTDGALLVNAMFFKPHWDEKFHHKMVDNRGFMVTRSYTVGVTMMHRTGLYNYYDDEKEKLQMVEMPLAHKLSSLIILMPHHVEPLERLEKLLTKEQLKAWMGKMQKKAVAISLPKGVVEVTHDLQKHLAGLGLTEAIDKNKADLSRMSGKKDLYLASVFHATAFEWDTEGNPFDQDIYGREELRSPKLFYADHPFIFLVRDNQSGSLLFIGRLVRPKGDKMRDEL
